Consider 139 substances from the supplement of paper PMC12042874.

± gives the uncertainty stated by the source.

The nature of this series: amyloid nucleation score (Sup35N fusion, yeast selection) (log enrichment); library NNK2; higher = more nucleation; inactive = no reads after selection. The method, boiled down:
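Peptides of 20 random codons, each fused to Sup35N, were expressed in psi-negative yeast. Cells were induced with 100 μM copper sulfate for 24 hours and grown 7 days at 30°C on medium lacking adenine and uracil, and plasmid inserts before and after selection were Illumina-sequenced. Nucleation scores are DiMSum log enrichments of output over input reads, centred on the mode score of non-aggregating sequences, and sequences under 100 input reads were excluded.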

Substance ELVGYNVVGAIGSQ had an amyloid nucleation score of -0.022 ± 0.26. With RSMYFGVQSLMYRSRLPKGS, the amyloid nucleation score turned out to be 4.01 ± 0.067. Take GNFDWAFHYGVFVHLCHKMG: the amyloid nucleation score entry is “inactive”.

On to TECITVVIWVYGAISHRSGT, for which the amyloid nucleation score was -0.247 ± 0.27. SWHVVQAVIDVVDREV returned an amyloid nucleation score of 0.967 ± 0.22. For WASLGYTCFGKVRRWAPGTH, the amyloid nucleation score turned out to be 0.371 ± 0.28.

For the substance CARSWLRVLGTSPEKMKG, the amyloid nucleation score came to 0.627 ± 0.74. In turn, LMASCHKQRTCRWHPRDRRY showed an amyloid nucleation score of 0.298 ± 0.46. The substance FGVNS returned an amyloid nucleation score of -0.021 ± 0.63.

For SRKFSFAYFTRFFYVLVLIV, the amyloid nucleation score result is “inactive”. YFRDRSFKKIILLPNWFMNT: the amyloid nucleation score entry was “inactive”.

SRKPNQINNRSRNSMLGARR displayed an amyloid nucleation score of -0.162 ± 0.27. Substance IEDYACMLNREMG displayed an amyloid nucleation score of 5.36 ± 0.049. KLTLLKTL: the amyloid nucleation score entry was “inactive”. In turn, IGSLNMLLLGRLVVWMRHIA displayed an amyloid nucleation score of 0.312 ± 0.54.

The substance YSISNPYACFSNVQSFLLYN displayed an amyloid nucleation score of 2.65 ± 0.15.

In turn, SRMRVLFALLQDFQSHVGSV registered an amyloid nucleation score of 1.36 ± 0.11. LAGIRCVIDRLMLCRVDAIK came in with an amyloid nucleation score of -0.656 ± 0.28. Regarding MKLVECNMDGCDTNTSFGWL, the amyloid nucleation score was -0.884 ± 0.78.

Turning to TKPNVW, the amyloid nucleation score is -0.067 ± 0.8. As for LQVVKKSNA, the amyloid nucleation score came to 3.61 ± 0.061. As for GKLHIRIWQDSVWLGDLRL, the figure is 3.82 ± 0.063; as for MASGRWYSNSTYGDCMGGIA, -0.321 ± 1; as for CLLVSEQRSRRHRRGALCIG, 0.872 ± 0.32. As for DMVDLCSKDMSRALFGPNMS, the figure is 5.39 ± 0.059; as for ELMDNFLVSFVGKHRVTRSS, “inactive”; as for HTTLHSSAIQVWSWRLLYFV, 5.061 ± 0.049.

RGADIAVRNFFDYQRRRWCN: the amyloid nucleation score was 0.222 ± 0.44. As to VDGVSLSGEFFNTIVNNFCI, the amyloid nucleation score worked out at 6.08 ± 0.062. IQPQSSVVERGQMNMVGPTP gave an amyloid nucleation score of 1.49 ± 0.12.

Regarding RSCSFRRLSGSVETLSGWAK, the amyloid nucleation score was determined as 0.35 ± 0.43.

For RNADI, the amyloid nucleation score was found to be 0.343 ± 0.46. Substance NWLGCEMPIGGSSSVSAMYL gave an amyloid nucleation score of 1.17 ± 0.21. In the case of RTYLGLVLGF, the amyloid nucleation score entry was “inactive”. As for VFSYYMSRFLGATCMYKAAG, the figure is 5.1 ± 0.072; as for RYNIVLGRLL, “inactive”; as for LRLDLRMPQRYRLGDTFVSS, 0.243 ± 0.24. The same measure for GLSDQKGTVALRFFYFDFYS: 2.73 ± 0.074; for VICLCVLFRGSCRIKILDIV: -1.37 ± 1.1. LISSSFRSVLRPNWTPLKVC: the amyloid nucleation score result is “inactive”. As to RIKMGSSGNLCFIWSMHMYD, the amyloid nucleation score was determined as 6.496 ± 0.044. Substance LSGKT had an amyloid nucleation score of 0.312 ± 0.54. YKLYTFCKSRMHVPAYGFSY returned an amyloid nucleation score of -1.96 ± 1.1. IPITSGIRRNCSSVRKDLGC showed an amyloid nucleation score of 0.123 ± 0.39. The same measure for LPGLIGS: 1.96 ± 0.26; for GITFPGFI: 0.115 ± 0.28. In the case of TKLYNDIFHNW, the amyloid nucleation score entry is “inactive”. In the case of AYEGFISYLIYLSIRNSSPC, the amyloid nucleation score entry is “inactive”. The same measure for CKVHVQVNTESYTGIVMTYY: 4.65 ± 0.039; for RSHPKMMSDICSV: 0.178 ± 0.65; for RTCSRGSFTYMEIGNVGRGC: 0.275 ± 0.5. For the substance GIHLVFGFMEWRVMSTLKVS, the amyloid nucleation score was -0.584 ± 0.64.

For the substance LTSHLYIYGMW, the amyloid nucleation score is -0.766 ± 0.48.

As to LGSAYSGKPHVFCS, the amyloid nucleation score entry was “inactive”. For the substance TATETFAF, the amyloid nucleation score is -0.28 ± 0.28. Turning to MMRVTIPGVVLSCWPFGSTR, the amyloid nucleation score turned out to be 3.09 ± 0.11. As for ELCGLMAEPYRSHILGCGWT, the figure is 3.67 ± 0.066. As for PMEWKPALPKTIVADARMRG, the figure is 0.48 ± 0.3; as for VTDQVVFSEWIAADYMFDKY, 0.491 ± 0.52.

Take DRTDVCWSSGHDHLDLCWMS: the amyloid nucleation score turned out to be 0.273 ± 0.25. In the case of FGWLALTKR, the amyloid nucleation score is -1.16 ± 0.34. For the substance RYTSVYSGRSENG, the amyloid nucleation score result is “inactive”.

TGRLPLFLQGLDEYPASNPE registered an amyloid nucleation score of -0.288 ± 1.1. SSAGC came in with an amyloid nucleation score of -1.23 ± 0.55.

IIMFRVYVM showed an amyloid nucleation score of -0.964 ± 0.76. The same measure for DPTGIGWIKEQSLVCCGGVS: 2.84 ± 0.081; for VYRNNL: -1.84 ± 1.1. CQSRY: the amyloid nucleation score was -0.373 ± 1.1. The same measure for LAFGHVSVS: 0.086 ± 0.55; for VFYNIL: “inactive”. Regarding MFARDNRFPYCDDTRSDSSF, the amyloid nucleation score was determined as 0.178 ± 0.45. As for LMLFDVKGRICGFDLCLIRR, the figure is 0.381 ± 0.62; as for IKEFYISQNFVNSHLRLANM, -1.51 ± 1.1. Substance PCRRYRVLFWGGSLVSSMGK yielded an amyloid nucleation score of 3.3 ± 0.07. On to HFRVMHSFQGQYKVIFK, for which the amyloid nucleation score was 2.73 ± 0.098. KIHQRRVTSTANRCTILAAN: the amyloid nucleation score was -0.572 ± 0.76. Substance HNITLLQLNCKWLKMVYEWT returned an amyloid nucleation score of 9.366 ± 0.061. YQTYF displayed an amyloid nucleation score of -1.08 ± 0.41.

As to YYLNSTSGKDR, the amyloid nucleation score entry was “inactive”. As to TFMMLMEHGRIYFLWASPVA, the amyloid nucleation score was -1.68 ± 1.1.

As for TLDFCEL, the amyloid nucleation score entry was “inactive”. The substance LFIGSIILHYGEKEVKMLAT gave an amyloid nucleation score of 0.571 ± 0.49. The same measure for FLNNDRYRR: -1.67 ± 0.78. The same measure for YHPTLVLGYQLTLLFMAFL: 0.613 ± 0.74; for RFWLNCCWRTCSTTFLNWMK: 0.472 ± 0.6; for MTYCCITSVPRGRIQNDAVR: “inactive”. NGVRYYFRVRGSMTRLNEAE displayed an amyloid nucleation score of 0.276 ± 1. Turning to WRLNEDHNRYDLIPGVRGLG, the amyloid nucleation score turned out to be 0.519 ± 0.56. Substance SRDVLVLIGYFSCGVIDSAL displayed an amyloid nucleation score of 5.16 ± 0.082. As to VGTPEHKLFYGLCVALGQFQ, the amyloid nucleation score result was “inactive”.

For the substance GMSYTLYQSWTVDHTVILPP, the amyloid nucleation score was found to be 3.99 ± 0.12. As for KSYLFESRKIGIVTNMGSYF, the figure is -0.594 ± 1.1; as for GIMSNLGQSPRVRSHSRRQQ, 0.747 ± 0.51; as for IAIKM, 3.25 ± 0.08. Substance AYTMQLNHRLVLSVSS gave an amyloid nucleation score of 0.219 ± 0.74. SADRRQGITRFGTFNGGVRS showed an amyloid nucleation score of 0.481 ± 0.24.

Turning to FGKNLTRMSDGGTVVPLRRN, the amyloid nucleation score turned out to be 0.255 ± 0.8. Substance FAPSSIDFYRGSKNGLFTAQ showed an amyloid nucleation score of -0.302 ± 0.4. SNRLRVVQ gave an amyloid nucleation score of -0.069 ± 0.32. As for SKGSGICRRISTEYDGVGQS, the figure is 0.6 ± 0.42.

LYCRTPFCTMTLELMKMTL registered an amyloid nucleation score of 0.128 ± 0.24. The same measure for DMVVMVYALLGPLQFECNK: 0.888 ± 0.15; for ESHCYSGDTWLCLCLSLVTR: 8.457 ± 0.034.

The substance HGSFAIMP gave an amyloid nucleation score of -0.529 ± 0.45. Take HGGSVWRRHSVFNAICISSS: the amyloid nucleation score turned out to be 1.11 ± 0.18. Substance CWMFVVHIAIWGGVSLDGIV yielded an amyloid nucleation score of 0.208 ± 1.1. FGKAF came in with an amyloid nucleation score of -0.375 ± 0.79. In turn, VACVAHNTHYELTQQSYIYY registered an amyloid nucleation score of 5.609 ± 0.046.

In turn, CTRMRPPYLEHQSCDRLSSR registered an amyloid nucleation score of 0.241 ± 0.54. For GRRYSRTVEFVTF, the amyloid nucleation score turned out to be 0.692 ± 0.29. Substance VSHMNCLDMICHLWISQLVL showed an amyloid nucleation score of 1.65 ± 0.098.

On to TLIAYCLL, for which the amyloid nucleation score worked out at 7.492 ± 0.046.

QYDSSFT had an amyloid nucleation score of -0.165 ± 0.55. QNAMGTSVDYNVNFVYVGNL came in with an amyloid nucleation score of 3.38 ± 0.089. In turn, LNLLDGWFL yielded an amyloid nucleation score of -0.7 ± 0.48. As for CRLLCVIGLYVDNLGPPLAR, the amyloid nucleation score was -0.044 ± 0.35. SRICIFDDCNRRLARYWGLR: the amyloid nucleation score was 0.057 ± 0.76. Substance FTLWFQTLARGGMLARNLFK showed an amyloid nucleation score of -1.17 ± 0.75. Substance NGTTWKYYSRMSVTCAGPSI gave an amyloid nucleation score of -0.952 ± 0.39. Take LYNVVSNTVKYCIFPC: the amyloid nucleation score is 7.135 ± 0.043. In turn, IRSLMSR registered an amyloid nucleation score of 2.32 ± 0.061. NTRCQFSTIGHFAASHDRRD had an amyloid nucleation score of 1.17 ± 0.21.

Substance IFYGRYGAILWGAKCLY had an amyloid nucleation score of 1.96 ± 0.21. As for VSCDNASSVLFFVRTTIWCT, the figure is 0.751 ± 0.74; as for SSYLTIPIIRVFLR, 0.126 ± 0.8; as for AFNATIRNAC, -0.746 ± 0.62. In the case of QHKDLYLW, the amyloid nucleation score result was “inactive”. As to SIRSLMGVRSKNSYCRLTVR, the amyloid nucleation score was determined as 0.011 ± 0.79.

In the case of STGSWTTVKLGREGAILHAL, the amyloid nucleation score was -0.407 ± 0.45. The same measure for HPLVLWSIELCMMFFNSLTD: -0.565 ± 0.48. FPLRCFTIFSMRASNF: the amyloid nucleation score stood at 0.615 ± 0.66. KWNQKKNRSCFKAQRWCKLP registered an amyloid nucleation score of -0.637 ± 1.1. As for HCGYEAIILWGVRFCGILQR, the figure is -0.357 ± 1.1.

Consider FYLGYQTRCYSLIGDIE, for which the amyloid nucleation score is 3.51 ± 0.05. As for MHGREFWRCTSWSSLVNLGV, the amyloid nucleation score stood at 0.998 ± 0.19. The same measure for ASHRVNGEVRYRRWSVLKRM: 0.839 ± 0.24; for QPCQSNSINDIHRRAGFGPL: -0.437 ± 0.64. As for SFLMCGHWIACALTMMVMFQ, the amyloid nucleation score stood at 0.896 ± 0.58. On to LKLASSGVHCLLFSYCRMAE, for which the amyloid nucleation score was 0.69 ± 0.62.
